Data on 116 sequences can be found in the supplement of paper PMC10724198.

± gives the standard deviation of the averaged measurements.
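Note: PSI is a weighted mean of sequencing reads over stability bins, variants kept only with over 10 reads, mCherry proximal and sfGFP distal, peptide attached via GGGS linker.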

This data set concerns Saccharomyces cerevisiae. As to the kind of experiment: protein stability index of tFT-peptide fusion (C-terminal peptide) (PSI (0-1 scale)); higher = more stable (slower turnover). The following applies: genetic background: wild type; temperature: 30 C.
ILTCGARSSICD yielded a protein stability index of 0.639 ± 0.011.

ILYNIEKQQSSV had a protein stability index of 0.683 ± 0.032.

Turning to IMTNGADRERYR, the protein stability index is 0.736 ± 0.034.

On to INARCNRTIVRP, for which the protein stability index amounted to 0.646 ± 0.021.

Regarding INEEIVDMKRLL, the protein stability index worked out at 0.697 ± 0.0095.

For the sequence INKKKKEKKKVE, the protein stability index came to 0.731 ± 0.023.

Regarding INKWNKRDGLFQ, the protein stability index was determined as 0.66 ± 0.03.

The sequence INPLAHCSISRS returned a protein stability index of 0.7086 ± 0.0066.

Take IPHHFSPPLPSP: the protein stability index worked out at 0.772 ± 0.082.

Consider IPPLPSSIPRSF, for which the protein stability index was determined as 0.673 ± 0.022.

Sequence IPPLTKRPAPGG gave a protein stability index of 0.684 ± 0.099.

The sequence IPQTITLPHSNP registered a protein stability index of 0.694 ± 0.088.

Take IPSKHKPSRIPI: the protein stability index is 0.665 ± 0.014.

For the sequence IQARAVRRSAII, the protein stability index was 0.627 ± 0.0012.

IQFKDKAVSETE registered a protein stability index of 0.658 ± 0.021.

In turn, IREFNLGTQIRY returned a protein stability index of 0.711 ± 0.035.

IRGCSGSDKNKS came in with a protein stability index of 0.643 ± 0.047.

As for IRKEKREKKSSH, the protein stability index is 0.702 ± 0.069.

IRKLDIIFLSES registered a protein stability index of 0.827 ± 0.063.

Regarding IRRPSVTAIRPS, the protein stability index turned out to be 0.667 ± 0.08.

With IRRRKRKRNQKP, the protein stability index worked out at 0.708 ± 0.032.

For IRSLPYVGVFIE, the protein stability index was found to be 0.587 ± 0.036.

Sequence ISEINQKGKNRE yielded a protein stability index of 0.675 ± 0.037.

Turning to ISFFLLYFPPSY, the protein stability index turned out to be 0.59 ± 0.024.

With ISKEIKKRLNRY, the protein stability index was found to be 0.63 ± 0.055.

ISLLIFSPTLFS: the protein stability index worked out at 0.687 ± 0.035.

Sequence ISLRAPVRPECV returned a protein stability index of 0.709 ± 0.031.

On to ISLVMLLKDAWR, for which the protein stability index is 0.695 ± 0.019.

ISMPECDIVEEI showed a protein stability index of 0.707 ± 0.022.

In the case of ISPPAPTNLPTT, the protein stability index turned out to be 0.696 ± 0.043.

As for ISSKREITGSVA, the protein stability index came out at 0.694 ± 0.012.

As to ITALYVILTRRP, the protein stability index amounted to 0.6007 ± 0.0033.

On to ITGLRNSRFNRP, for which the protein stability index was 0.652 ± 0.0068.

In turn, ITHLFRSSIYSR came in with a protein stability index of 0.683 ± 0.12.

ITNEQEMKRYDV registered a protein stability index of 0.667 ± 0.013.

As to ITRKKLEISVDK, the protein stability index came out at 0.685 ± 0.04.

The sequence ITTKLRVTRLLR had a protein stability index of 0.766 ± 0.13.

Consider IVEERLFWKMWE, for which the protein stability index was found to be 0.659 ± 0.015.

With IVFVLRPRRSRC, the protein stability index amounted to 0.65 ± 0.04.

Take IVNKRLKIRKKQ: the protein stability index came to 0.658 ± 0.045.

Consider IVRENGKDVGVG, for which the protein stability index is 0.506 ± 0.014.

For IVRMLTCGVGWD, the protein stability index was found to be 0.581 ± 0.016.

For IVSKESNVYIIK, the protein stability index turned out to be 0.662 ± 0.053.

Turning to IVVLMEADLAGC, the protein stability index is 0.583 ± 0.02.

Consider IWLAFCTLRPVS, for which the protein stability index was 0.591 ± 0.027.

As for IWLSCCPLAFWS, the protein stability index was determined as 0.6896 ± 0.0065.

Consider IWRLLLPLPNPF, for which the protein stability index was 0.688 ± 0.019.

For IYRTYEAKPGHP, the protein stability index was determined as 0.69 ± 0.12.

IYRWSGTVGGER displayed a protein stability index of 0.6971 ± 0.003.

IYVGAGCLGHTE came in with a protein stability index of 0.717 ± 0.068.

On to KAGHEPRLTRKQ, for which the protein stability index stood at 0.667 ± 0.022.

In turn, KAGVGAFLEPRS yielded a protein stability index of 0.713 ± 0.064.

KAGVWLWVGGGG: the protein stability index was determined as 0.739 ± 0.015.

In turn, KCDLTREDVVHR returned a protein stability index of 0.657 ± 0.01.

As to KDDEQESESKNN, the protein stability index turned out to be 0.667 ± 0.011.

For KDEWVQSHTNQV, the protein stability index came out at 0.671 ± 0.0083.

In the case of KDKEQKKIKKSI, the protein stability index was 0.681 ± 0.13.

KDKNPDARDDGG displayed a protein stability index of 0.705 ± 0.04.

On to KDRKKYIMTKPS, for which the protein stability index was found to be 0.627 ± 0.051.

As to KDSSRHSPDPSR, the protein stability index came to 0.715 ± 0.086.

In turn, KEDKLLRSSEGF registered a protein stability index of 0.6886 ± 0.0029.

Sequence KEEGLKRAKGPQ came in with a protein stability index of 0.642 ± 0.02.

KEELKKRRQEAK returned a protein stability index of 0.677 ± 0.012.

In turn, KEFFGGSTDFRV returned a protein stability index of 0.729 ± 0.18.

As for KEGKGRGDGGRE, the protein stability index was 0.697 ± 0.018.

In turn, KEKGSRYKRALS gave a protein stability index of 0.679 ± 0.014.

In turn, KETQKKKQDKKK came in with a protein stability index of 0.703 ± 0.0091.

Consider KFARHVLIQSHV, for which the protein stability index was determined as 0.559 ± 0.04.

As for KFKREKKKINKR, the protein stability index worked out at 0.6938 ± 0.0023.

As to KFLISIWGGTRG, the protein stability index is 0.6118 ± 0.0025.

KGANISDCLSIF displayed a protein stability index of 0.616 ± 0.018.

In turn, KGDAQASSDLTL registered a protein stability index of 0.691 ± 0.014.

Take KGDWGGRGCGRH: the protein stability index stood at 0.693 ± 0.021.

Regarding KGEKKNEEEERG, the protein stability index is 0.68 ± 0.01.

KGETRLTSARLI yielded a protein stability index of 0.706 ± 0.028.

On to KGETSYTGIAVG, for which the protein stability index was 0.667 ± 0.085.

Sequence KGGGMWRCCVWR came in with a protein stability index of 0.685 ± 0.0089.

With KGGREARRERRD, the protein stability index was 0.672 ± 0.036.

Sequence KGKTARDVLLLV returned a protein stability index of 0.58 ± 0.013.

KGQIVIDTKGGG: the protein stability index amounted to 0.609 ± 0.053.

With KGSWTLGDGLVW, the protein stability index was 0.644 ± 0.013.

KHPLAPLRRPVI returned a protein stability index of 0.68 ± 0.0078.

With KHYKVDAVNIRG, the protein stability index is 0.686 ± 0.035.

KIDKKNKKKKRN yielded a protein stability index of 0.728 ± 0.023.

For KIDKKSKKKKEI, the protein stability index is 0.684 ± 0.017.

Turning to KIDKNILTNKEN, the protein stability index was determined as 0.673 ± 0.056.

Take KIGYTISGFVIS: the protein stability index was 0.707 ± 0.054.

Regarding KIIASVLYGVIG, the protein stability index came to 0.61 ± 0.037.

The sequence KIINKKKKRKKN yielded a protein stability index of 0.665 ± 0.023.

The sequence KIKDKKNKQKKH registered a protein stability index of 0.709 ± 0.034.

KIKKLKKRNKSY showed a protein stability index of 0.612 ± 0.023.

Take KIKNKYKEKKKK: the protein stability index turned out to be 0.67 ± 0.0079.

On to KIKQKEITEKNR, for which the protein stability index was found to be 0.638 ± 0.038.

For the sequence KIRFGRCLRSSF, the protein stability index is 0.746 ± 0.033.

Regarding KIRNLELNVQTN, the protein stability index came out at 0.688 ± 0.075.

For KITKKNRSWKTS, the protein stability index was 0.623 ± 0.019.

Sequence KIYKKSKKKKEI registered a protein stability index of 0.688 ± 0.061.

For KKDFTTKSKEYR, the protein stability index worked out at 0.7125 ± 0.0026.

For the sequence KKDRRGGGPGGG, the protein stability index was found to be 0.691 ± 0.03.

KKEEIIIGGKKI yielded a protein stability index of 0.663 ± 0.043.

KKEERTQKNEKK registered a protein stability index of 0.654 ± 0.011.

Regarding KKEKKKQKRNNN, the protein stability index came out at 0.782 ± 0.013.

As for KKEKNQEKRKKE, the protein stability index is 0.657 ± 0.021.

In turn, KKEKSQTKKQNI returned a protein stability index of 0.684 ± 0.12.

Sequence KKEKVKKKKGNN came in with a protein stability index of 0.723 ± 0.013.

KKEKYIQIRTID registered a protein stability index of 0.627 ± 0.033.

In turn, KKEQKFKEDSDR gave a protein stability index of 0.677 ± 0.019.

In turn, KKEQKSKTEMRK showed a protein stability index of 0.7124 ± 0.0037.

For KKGKEKEVKKKK, the protein stability index is 0.646 ± 0.074.

For the sequence KKGKKRNKTAKQ, the protein stability index was 0.628 ± 0.062.

Regarding KKGNKYNNKRKK, the protein stability index amounted to 0.69 ± 0.04.

KKGRTVEKKKGD came in with a protein stability index of 0.694 ± 0.0039.

Sequence KKGSSKKKKPVE had a protein stability index of 0.6581 ± 0.0062.

Regarding KKHTLNENKMKE, the protein stability index worked out at 0.652 ± 0.011.

Sequence KKICPDFGLLLV displayed a protein stability index of 0.591 ± 0.004.

On to KKIEHRVLNELK, for which the protein stability index came out at 0.6288 ± 0.00069.
